Consider three substances from article PMC9436816.

Data set [1] concerns the target Flag-tagged PKM2^WT (pyruvate kinase M2) (human) (UniProt P14618). Briefly: cross-linking; whole cell lysates (4 mg/ml) cross-linked with 0.025% glutaraldehyde for 3 min at 37 °C, stopped with Tris-HCl pH 8.0, WB; cells with or without EGF (100 ng/ml, 1 h), with or without transfected OGT variants.
A short description of data set [2]: colorimetric PK activity of immunoprecipitated PKM2 after EGF. The following applies: glycan lost; control: Flag-PKM2 WT, EGF-treated.
Data set [3] is described as follows: glutaraldehyde crosslinking, WB; tetramer fraction after EGF. Particulars: glycan lost; control: Flag-PKM2 WT, EGF-treated.
Data set [4] has as its target pyruvate kinase M2 (PKM2), endogenous (human (endogenous in A549)) (UniProt P14618). Briefly: cross-linking; whole cell lysates (4 mg/ml) cross-linked with 0.025% glutaraldehyde for 3 min at 37 °C, stopped with Tris-HCl pH 8.0, WB; cells with or without EGF (100 ng/ml, 1 h), with or without transfected OGT variants.

For the substance “Flag-tagged PKM2^WT (pyruvate kinase M2), P14618 1-531 (enzyme; other documents disagree on this pair)”, the stoichiometry N in data set [1] came to 2.

Pyruvate kinase M2 (PKM2): T405A/S406A: the enzymatic_activity result in data set [2] was “increases”. Further, the oligomerisation entry in data set [3] is “increases”.

In the case of “pyruvate kinase M2 (PKM2), endogenous, P14618 1-531 (enzyme; other documents disagree on this pair)”, in data set [4], the stoichiometry N turned out to be 2.

For orientation: stoichiometry N means a count of units in the complex or per binding partner.
